From US20220235136A1, “METHODS AND COMPOSITIONS FOR TREATING A DISEASE OR DISORDER” (YALE UNIVERSITY, priority 2019, published 2022)

Target: human IGF1R on transfected CHO cells (human), P08069
Experiment: flow cytometry, IGFBP7-Ig on IGF1R transfected CHO cells (CHO-WT: 3.52)
Conditions: remark: other sources report otherwise

human IGF1R on transfected CHO cells (human), P08069, sequence (P08069 31-1367): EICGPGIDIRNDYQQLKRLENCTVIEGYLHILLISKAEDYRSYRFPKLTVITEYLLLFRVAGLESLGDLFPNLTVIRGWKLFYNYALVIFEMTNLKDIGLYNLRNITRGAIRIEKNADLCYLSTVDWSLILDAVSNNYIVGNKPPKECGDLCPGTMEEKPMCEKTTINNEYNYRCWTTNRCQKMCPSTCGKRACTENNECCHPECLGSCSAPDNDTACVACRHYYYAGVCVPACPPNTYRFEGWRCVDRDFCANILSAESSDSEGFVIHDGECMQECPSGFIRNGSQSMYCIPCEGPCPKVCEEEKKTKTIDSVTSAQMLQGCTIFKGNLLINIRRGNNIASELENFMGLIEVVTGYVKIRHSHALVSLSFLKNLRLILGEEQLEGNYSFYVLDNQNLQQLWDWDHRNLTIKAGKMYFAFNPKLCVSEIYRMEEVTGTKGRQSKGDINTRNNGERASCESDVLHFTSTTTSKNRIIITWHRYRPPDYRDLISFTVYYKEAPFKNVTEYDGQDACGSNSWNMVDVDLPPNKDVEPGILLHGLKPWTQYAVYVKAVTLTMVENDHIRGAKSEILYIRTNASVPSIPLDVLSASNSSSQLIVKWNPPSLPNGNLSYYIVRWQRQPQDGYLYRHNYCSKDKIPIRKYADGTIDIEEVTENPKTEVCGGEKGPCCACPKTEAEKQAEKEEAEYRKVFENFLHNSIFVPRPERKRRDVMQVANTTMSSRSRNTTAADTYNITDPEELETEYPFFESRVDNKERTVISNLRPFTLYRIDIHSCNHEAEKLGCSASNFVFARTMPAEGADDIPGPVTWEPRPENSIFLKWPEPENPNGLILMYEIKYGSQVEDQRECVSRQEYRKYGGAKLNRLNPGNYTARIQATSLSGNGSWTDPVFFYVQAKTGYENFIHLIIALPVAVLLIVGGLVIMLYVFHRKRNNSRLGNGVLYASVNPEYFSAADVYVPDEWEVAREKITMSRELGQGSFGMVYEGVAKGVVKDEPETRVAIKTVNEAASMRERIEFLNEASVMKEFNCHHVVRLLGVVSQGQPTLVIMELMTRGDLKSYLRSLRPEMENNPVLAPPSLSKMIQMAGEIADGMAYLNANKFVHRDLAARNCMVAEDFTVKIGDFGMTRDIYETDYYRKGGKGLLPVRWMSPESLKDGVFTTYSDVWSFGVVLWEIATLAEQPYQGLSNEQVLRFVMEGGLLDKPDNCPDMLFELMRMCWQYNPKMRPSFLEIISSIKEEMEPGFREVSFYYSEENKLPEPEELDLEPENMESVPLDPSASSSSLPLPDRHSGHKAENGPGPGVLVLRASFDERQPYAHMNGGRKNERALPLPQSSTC

B1: Human IGFBP7 (Fc-tag), Sino Biological, Q16270 27-282 (Fc fusion, not shown: a dimerising Fc or GST)
chain: SSSDTCGPCEPASCPPLPPLGCLLGETRDACGCCPMCARGEGEPCGGGGAGRGYCAPGMECVKSRKRRKGKAGAAAGGPGVSGVCVCKSRYPVCGSDGTTYPSGCQLRAASQRAESRGEKAITQVSKGTCEQGPSIVTPPKDIWNVTGAQVYLSCEVIGIPTPVLIWNKVKRGHYGVQRTELLPGDRDNLAIQTRGGPEKHEVTGWVLVSPLSKEDAGEYECHASNSQGQASASAKITVVDALHEIPVKKGEGAEL
- number printed above the gate of the dot plot (share of cells in the gate; unit not given): 2.04
